# In the supplement of paper PMC9112550, “Optimization of the antimicrobial peptide Bac7 by deep mutational scanning” (BMC Biology, 2022):
# System: Escherichia coli TOP10
# Test: shrunken log2 fold change of peptide-encoding DNA abundance (4.5 h post-induction vs induction); higher = less antimicrobial activity (less host growth inhibition)
# Conditions: time post-induction: 4.5 h; library: site-saturation at positions 5, 18, 19, 20
# 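Note: peptides expressed intracellularly from a pBAD plasmid library in pooled LB shake-flask culture, induced with 0.3% L-arabinose, DNA abundance read by NGS, three biological replicates, DESeq2 with apeglm shrinkage.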
row,Sequence,shrunken log2 fold change
1,RRIRKRPPRLPRPRPRPNEMPRP,0.0671
2,RRIRKRPPRLPRPRPRPNEWPRP,0.0498
3,RRIRKRPPRLPRPRPRPNFYPRP,0.0337
4,RRIRKRPPRLPRPRPRPNGEPRP,0.189
5,RRIRKRPPRLPRPRPRPNGMPRP,0.0655
6,RRIRKRPPRLPRPRPRPNHQPRP,-0.376
7,RRIRKRPPRLPRPRPRPNIWPRP,0.519
8,RRIRKRPPRLPRPRPRPNKDPRP,0.0544
9,RRIRKRPPRLPRPRPRPNMKPRP,0.125
10,RRIRKRPPRLPRPRPRPNMSPRP,-0.0139
11,RRIRKRPPRLPRPRPRPNNDPRP,0.0263
12,RRIRKRPPRLPRPRPRPNPAPRP,-0.000888
13,RRIRKRPPRLPRPRPRPNQHPRP,0.0449
14,RRIRKRPPRLPRPRPRPNSAPRP,0.393
15,RRIRKRPPRLPRPRPRPNSEPRP,2.18
16,RRIRKRPPRLPRPRPRPNSIPRP,-0.0805
17,RRIRKRPPRLPRPRPRPNSQPRP,0.27
18,RRIRKRPPRLPRPRPRPNTYPRP,0.0436
19,RRIRKRPPRLPRPRPRPNWNPRP,-0.191
20,RRIRKRPPRLPRPRPRPNWVPRP,-0.087
21,RRIRKRPPRLPRPRPRPNWWPRP,-0.382
22,RRIRKRPPRLPRPRPRPNYCPRP,-0.0369

row,Sequence,shrunken log2 fold change
1,RRIRKRPPRLPRPRPRPNYDPRP,-0.359
2,RRIRKRPPRLPRPRPRPPARPRP,1.16
3,RRIRKRPPRLPRPRPRPPCPPRP,0.399
4,RRIRKRPPRLPRPRPRPPDGPRP,0.992
5,RRIRKRPPRLPRPRPRPPDKPRP,0.474
6,RRIRKRPPRLPRPRPRPPDYPRP,0.145
7,RRIRKRPPRLPRPRPRPPEFPRP,0.0984
8,RRIRKRPPRLPRPRPRPPFHPRP,0.307
9,RRIRKRPPRLPRPRPRPPFLPRP,-0.0158
10,RRIRKRPPRLPRPRPRPPFQPRP,0.119
11,RRIRKRPPRLPRPRPRPPGTPRP,0.794
12,RRIRKRPPRLPRPRPRPPHCPRP,1.19
13,RRIRKRPPRLPRPRPRPPHDPRP,0.559
14,RRIRKRPPRLPRPRPRPPHEPRP,0.491
15,RRIRKRPPRLPRPRPRPPKWPRP,0.0966
16,RRIRKRPPRLPRPRPRPPLAPRP,1.06
17,RRIRKRPPRLPRPRPRPPLIPRP,0.285
18,RRIRKRPPRLPRPRPRPPMRPRP,0.918
19,RRIRKRPPRLPRPRPRPPNAPRP,0.711
20,RRIRKRPPRLPRPRPRPPNNPRP,0.364
21,RRIRKRPPRLPRPRPRPPNRPRP,0.151
22,RRIRKRPPRLPRPRPRPPQLPRP,0.488

row,Sequence,shrunken log2 fold change
1,RRIRKRPPRLPRPRPRPPRVPRP,0.648
2,RRIRKRPPRLPRPRPRPPTLPRP,1.53
3,RRIRKRPPRLPRPRPRPPTYPRP,0.0129
4,RRIRKRPPRLPRPRPRPPWSPRP,0.154
5,RRIRKRPPRLPRPRPRPPYEPRP,0.0908
6,RRIRKRPPRLPRPRPRPPYHPRP,0.0273
7,RRIRKRPPRLPRPRPRPQASPRP,0.353
8,RRIRKRPPRLPRPRPRPQAYPRP,-0.216
9,RRIRKRPPRLPRPRPRPQCNPRP,-0.0696
10,RRIRKRPPRLPRPRPRPQDPPRP,1.55
11,RRIRKRPPRLPRPRPRPQELPRP,0.329
12,RRIRKRPPRLPRPRPRPQEMPRP,-0.00136
13,RRIRKRPPRLPRPRPRPQENPRP,0.256
14,RRIRKRPPRLPRPRPRPQEWPRP,-0.0193
15,RRIRKRPPRLPRPRPRPQFDPRP,-0.0088
16,RRIRKRPPRLPRPRPRPQFQPRP,-0.0733
17,RRIRKRPPRLPRPRPRPQFYPRP,-0.555
18,RRIRKRPPRLPRPRPRPQGKPRP,0.0114
19,RRIRKRPPRLPRPRPRPQGRPRP,-0.078
20,RRIRKRPPRLPRPRPRPQHSPRP,-0.288
21,RRIRKRPPRLPRPRPRPQIPPRP,-0.0346
22,RRIRKRPPRLPRPRPRPQISPRP,-0.0814

row,Sequence,shrunken log2 fold change
1,RRIRKRPPRLPRPRPRPQIWPRP,0.138
2,RRIRKRPPRLPRPRPRPQKDPRP,0.00486
3,RRIRKRPPRLPRPRPRPQMHPRP,0.0713
4,RRIRKRPPRLPRPRPRPQMRPRP,0.292
5,RRIRKRPPRLPRPRPRPQNTPRP,0.00556
6,RRIRKRPPRLPRPRPRPQPHPRP,0.554
7,RRIRKRPPRLPRPRPRPQQWPRP,0.105
8,RRIRKRPPRLPRPRPRPQRLPRP,0.308
9,RRIRKRPPRLPRPRPRPQRNPRP,0.0463
10,RRIRKRPPRLPRPRPRPQSEPRP,0.0585
11,RRIRKRPPRLPRPRPRPQTAPRP,0.385
12,RRIRKRPPRLPRPRPRPQTEPRP,-0.0229
13,RRIRKRPPRLPRPRPRPQTNPRP,0.271
14,RRIRKRPPRLPRPRPRPQVNPRP,-0.124
15,RRIRKRPPRLPRPRPRPQVWPRP,-0.0233
16,RRIRKRPPRLPRPRPRPQWAPRP,-0.0368
17,RRIRKRPPRLPRPRPRPQWYPRP,-0.145
18,RRIRKRPPRLPRPRPRPQYPPRP,0.131
19,RRIRKRPPRLPRPRPRPQYRPRP,-0.185
20,RRIRKRPPRLPRPRPRPRAHPRP,0.68
21,RRIRKRPPRLPRPRPRPRAYPRP,-0.382
22,RRIRKRPPRLPRPRPRPRCFPRP,0.412

row,Sequence,shrunken log2 fold change
1,RRIRKRPPRLPRPRPRPRCTPRP,0.555
2,RRIRKRPPRLPRPRPRPRDHPRP,0.494
3,RRIRKRPPRLPRPRPRPRDIPRP,0.246
4,RRIRKRPPRLPRPRPRPRDLPRP,0.255
5,RRIRKRPPRLPRPRPRPRENPRP,0.559
6,RRIRKRPPRLPRPRPRPREPPRP,1.39
7,RRIRKRPPRLPRPRPRPRFAPRP,0.614
8,RRIRKRPPRLPRPRPRPRGCPRP,0.128
9,RRIRKRPPRLPRPRPRPRGEPRP,0.764
10,RRIRKRPPRLPRPRPRPRGGPRP,0.848
11,RRIRKRPPRLPRPRPRPRGKPRP,0.126
12,RRIRKRPPRLPRPRPRPRGMPRP,0.357
13,RRIRKRPPRLPRPRPRPRHYPRP,-0.0867
14,RRIRKRPPRLPRPRPRPRKNPRP,0.876
15,RRIRKRPPRLPRPRPRPRMHPRP,0.557
16,RRIRKRPPRLPRPRPRPRNNPRP,0.198
17,RRIRKRPPRLPRPRPRPRPFPRP,0.612
18,RRIRKRPPRLPRPRPRPRRKPRP,0.969
19,RRIRKRPPRLPRPRPRPRSQPRP,0.051
20,RRIRKRPPRLPRPRPRPRTGPRP,0.376
21,RRIRKRPPRLPRPRPRPRWEPRP,0.0207
